Results as given in article doi:10.1101/2025.02.17.637997, “Phosphorylation-State Modulated Binding of HSP70: Structural Insights and Compensatory Protein Engineering” (bioRxiv, 2025).
Numbering of substitutions follows the chain as printed. Names and notes keep the numbering of the source. Values joined by “and” are separate entries in the source; they are usually repeats but may differ in a detail not shown here. Equal values may be shown once. “Also recorded” adds a separate entry of the source. Ends that are not written are not given here. * marks the point of attachment. FITC = O=C1OC2(c3ccc(O)cc3Oc3cc(O)ccc32)c2ccc(NC(=S)*)cc21; Ahx = NCCCCCC(=O)O

Tests used:
CHIP-TPR (21–154) [1] = target: T1, CHIP-TPR (21–154) (UniProt Q9UNE7 21-154); assay: biolayer interferometry, peptide on sensor; settings: reference: biotin-EEVD peptide; sites T636
T1 construct: also called extended TPR domain of CHIP
T1 sequence (looked up): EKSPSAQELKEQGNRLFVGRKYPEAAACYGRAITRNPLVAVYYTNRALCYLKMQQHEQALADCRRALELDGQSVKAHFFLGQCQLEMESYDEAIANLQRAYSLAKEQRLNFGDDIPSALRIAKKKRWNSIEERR

CHIP = CHIP (UniProt Q9UNE7); assay: fluorescence polarization titration; settings: reference: unphosphorylated EEVD peptide; sites T636
[2] = target: recombinant full-length CHIP-K30A (UniProt Q9UNE7 1-303, K30A); assay: FP
Chain of recombinant full-length CHIP-K30A (Q9UNE7 whole entry K30A, the tested form may be a part): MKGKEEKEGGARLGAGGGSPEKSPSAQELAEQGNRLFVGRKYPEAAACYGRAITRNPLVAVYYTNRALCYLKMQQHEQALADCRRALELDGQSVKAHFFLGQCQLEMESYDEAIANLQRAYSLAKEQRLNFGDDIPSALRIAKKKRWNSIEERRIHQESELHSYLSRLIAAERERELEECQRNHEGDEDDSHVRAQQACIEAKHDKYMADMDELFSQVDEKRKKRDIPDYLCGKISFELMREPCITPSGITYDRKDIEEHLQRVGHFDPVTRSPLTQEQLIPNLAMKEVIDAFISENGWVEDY

[3] = target: T2, CHIP domain fragment: TPR with the coiled-coil domain; assay: FP
T2 chain: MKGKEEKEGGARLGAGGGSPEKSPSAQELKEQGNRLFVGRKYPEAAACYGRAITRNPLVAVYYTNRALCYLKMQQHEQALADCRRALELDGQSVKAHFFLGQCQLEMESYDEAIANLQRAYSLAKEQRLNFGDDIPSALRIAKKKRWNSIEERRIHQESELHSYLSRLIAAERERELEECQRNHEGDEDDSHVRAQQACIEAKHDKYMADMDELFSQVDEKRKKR

[4] = target: T3, recombinant full-length CHIP-WT (UniProt Q9UNE7 1-303); assay: FP
T3 chain: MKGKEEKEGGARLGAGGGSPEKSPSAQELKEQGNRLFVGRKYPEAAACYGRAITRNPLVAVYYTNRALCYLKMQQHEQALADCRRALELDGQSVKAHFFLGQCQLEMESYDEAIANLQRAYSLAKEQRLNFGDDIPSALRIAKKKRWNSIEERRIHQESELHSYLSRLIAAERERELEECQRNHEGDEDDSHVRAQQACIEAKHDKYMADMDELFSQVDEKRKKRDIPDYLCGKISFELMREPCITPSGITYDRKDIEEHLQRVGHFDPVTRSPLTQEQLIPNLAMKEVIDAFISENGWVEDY

[5] = target: recombinant full-length CHIP-G132N (UniProt Q9UNE7 1-303, G132N); assay: FP
Target sequence in this assay (Q9UNE7 whole entry G132N): as the sequence (Q9UNE7 whole entry K30A, the tested form may be a part) above, with A30K, G132N counted along it

[6] = target: T4, recombinant full-length CHIP-G132N (UniProt Q9UNE7 1-303, G132N); assay: fluorescence polarisation; 20 nM N-terminally FITC-labelled peptide, recombinant CHIP constructs at increasing concentrations, 30 minutes at room temperature; one site/total binding fit with Bmax constrained to 100; settings: both partners purified
T4 construct: CHIP, full-length recombinant protein with G132N
T4 sequence (looked up): T3 chain with G132N

[7] = target: T5, recombinant full-length CHIP-WT (UniProt Q9UNE7 1-303); assay: as above; settings: both partners purified
T5 sequence (looked up): T3 chain

CHIP-TPR (21–154) [8] = target: T1, CHIP-TPR (21–154); assay: as above; settings: both partners purified
HSP70 = assay: Co-immunoprecipitation of CHIP variants with HSP70, COS-7; assay type: cell-based; settings: Co-IP of MYC-CHIP, Fig. 1I
Experimental: Samples were collected in a lysis buffer composed of 50 mM Tris-HCl (pH 7.4), 150 mM NaCl, 2 mM EDTA, and 1% Triton X-100, supplemented with 1X Halt protease and phosphatase inhibitor (Thermo Scientific). The samples were then sonicated and combined with Laemmli sample buffer (Bio-Rad). The lysates were resolved on 4–15% TGX Stain-Free gels (Bio-Rad) and transferred to PVDF membranes (Bio-Rad). The membranes were blocked in 5% milk and incubated with primary antibodies (Table S3) overnight at 4°C. Following this, HRP-conjugated secondary antibodies (Cell Signaling Technology) were applied. Detection was performed using Lumigen ECL Ultra (Lumigen, tma-100), and the blots were imaged with the ChemiDoc Imaging System (BioRad).
Ezview™ Red Anti-c-Myc Affinity Gel Beads (Sigma-Aldrich) were used for co-immunoprecipitation of myc-tagged proteins. Proteins were eluted via boiling before western blot analysis.

LgBiT-HSP70 T636A/D [9] = assay: NanoBiT live-cell interaction, COS-7, CHIP variants with LgBiT-HSP70; assay type: cell-based; settings: Fig. 1F
Experimental: (§1) HEK293 and COS-7 cells were acquired from the UNC Lineberger Comprehensive Cancer Center Tissue Culture Facility. Cultures were maintained in Dulbecco’s Modified Eagle Medium with 10% fetal bovine serum at 37 °C and 5% CO2. Using the manufacturers’ instructions, X-tremeGENE 9 was used to transfect cells with plasmid DNA except for NanoBiT constructs, in which case we used Lipofectamine 3000 (Thermo Fisher Scientific). Where indicated, twenty-four hours post-transfection, cells were treated with 20 μM MG-132 (Selleck Chemicals) for 6 h or 100 μM cycloheximide (Sigma-Aldrich) for the stated duration.
(§2) NanoBiT Protein: Protein Interaction System (Promega) was used to measure protein-protein interaction data following the manufacturer’s instructions. As previously described, LgBiT-HSP70 and SmBiT-CHIP construct interactions were used as positive controls ([22]). Twenty-four hours post-transfection, the cells were collected, replated in 96-well clear bottom white-sided tissue culture plates, and maintained at 37 °C and 5% CO2 for 45 min. Nano-Glo Live Cell Reagent (Promega) was added, and luminescence was measured using a CLARIOstar microplate reader over 20 minutes. The total area under the maximum luminescence curve was quantified and used to compare changes in HSP70-CHIP interactions relative to the WT-WT conditions.

LgBiT-HSP70 T636A/D [10] = assay: NanoBiT live-cell interaction, HEK-293, CHIP variants with LgBiT-HSP70; assay type: cell-based; settings: compared with CHIP-WT, Fig. 1E
Experimental: as §1, §2

HSC70 = assay: Cell-free ubiquitination of HSC70 by CHIP; assay type: biochemical, human; settings: 100 nM Uba1, 1 μM UBE2D2, 200 nM Hsc70, 100 μM Ub, 1 μM CHIP, pH 8.0, 15 min, room temperature; three experiments; p = 0.0774; Fig. 1K
Experimental: Ubiquitination assays were conducted using recombinant human HSC70, fluorescently tagged on its N-terminus. All assay components except ubiquitin were premixed on ice in a BSA-containing buffer (20 mM HEPES, pH 8.0; 200 mM NaCl; 0.5 mg/mL BSA). Reactions were initiated by adding ubiquitin and were allowed to proceed at room temperature unless specified otherwise. The reactions contained a final concentration of 100 nM Uba1, 1 μM UBE2D2, 200 nM Hsc70, 100 μM Ub, 5 mM MgCl2-ATP, and 1 μM CHIP. The reactions proceeded for 15 minutes before being quenched with SDS loading buffer. The quenched samples were separated by molecular weight via SDS-PAGE in non-reducing conditions using GenScript SurePAGE 4–12% gels. The CHIP-dependent ubiquitination of Hsc70 was visualized and quantified through fluorescent scanning on an Amersham Typhoon 5.

CHIP-G132N = target: T6, CHIP-G132N (Homo sapiens, UniProt Q9UNE7, G132N); assay: Biolayer interferometry, CHIP-G132N TPR; assay type: binding; settings: BLI; CHIP-G132N TPR; Fig. 2E
T6 construct: Recombinant CHIP-TPR constructs were recombinantly expressed using the pHis//2 CHIP-TPR (21–154) plasmid; His; made in house
T6 sequence (Q9UNE7 21-154 G132N): T1 sequence (looked up) with G112N
Experimental: Bio-layer interferometry measured peptide binding using a BLItz instrument (FortéBio, Sartorius) with streptavidin (SA) sensors. Biotin-EEVD and biotin-pEEVD were solubilized in 20 mM HEPES, 150 mM NaCl, pH 7.0. Affinity measurements were made using the advanced kinetic protocol within the BLItz Pro system software. Biosensors were hydrated for ten minutes in assay buffer comprising 20 mM HEPES, 150 mM NaCl, 5 mM β-mercaptoethanol, pH 7.2. For each affinity measurement, a new, hydrated biosensor was placed on the BLItz tip, and the “Initial Baseline” step was completed by incubation for 30 seconds in 500 μl assay buffer in an opaque black microcentrifuge tube (Argos Technologies). Peptides were loaded during the “Loading Step” by incubating the tip in 4 μl of either peptide for 60 seconds. The “Baseline step” was then conducted by incubation for 30 seconds in 500 μl assay buffer in an opaque black microcentrifuge tube. The “Association step” was performed by incubating the tip in 4 μl of the appropriate TPR protein construct, at protein concentrations of 1 to 25 μM, in assay buffer in an opaque black microcentrifuge tube for 120 seconds. […] Affinities (Kd) were calculated by the BLItz Pro software as Kd=koff/kon, where koff and kon were determined by individual fits to the “dissociation step” and “association step,” respectively, for each run.

For “HSP70 C-terminal tail (from UniProt P0DMV8) biotin-pEEVD (pT636) peptide”, the fold change (CHIP-TPR (21–154) [1]) was “weaker”.

With “HSP70 C-terminal tail (from UniProt P0DMV8) pEEVD (pT636) peptide” the fold change (CHIP) was “weaker”.

B1: N-FITC-Ahx-GSGPTIEEVD (peptide)
peptide: {FITC-Ahx}-GSGPTIEEVD
notes: C-terminal tail of HSP70; tracer of the fluorescence polarisation assay; also called HSP70 peptide tracer; source: synthetic peptide (Lifetein or Genscript)
For B1, the Kd [2] was 66 µM, the Kd [3] was 28 µM and the Kd [4] was 6.5 µM and 7 µM. The Kd [5] was 9.2 µM, the binding result [6] was “binds” and the binding result [7] was “binds”. B1: binds (CHIP-TPR (21–154) [8]).

B2: CHIP-K30A: substitution known to disrupt the ability of CHIP's TPR domain to bind EEVD motifs (protein)
chain: T3 chain with K30A
In the case of B2, the “co-precipitation of HSP70 by CHIP variant” value (HSP70) is reported as “failed to precipitate appreciable amounts of HSP70 construct above background levels”, the “luminescence of CHIP variant with HSP70 constructs” value (LgBiT-HSP70 T636A/D [9]) is reported as “limited luminescence detected” and the “luminescence of CHIP variant with HSP70-T636A/D” value (LgBiT-HSP70 T636A/D [10]) is reported as “robust decrease in luminescence”.

B3: CHIP-G132N: engineered CHIP variant to restore binding affinity to phosphorylated HSP70 (protein)
chain: T3 chain with G132N
With B3 the “co-precipitation of HSP70 by CHIP variant” value (HSP70) was “did not override the effect of the HSP70-T636D phosphomimetic”, the “ubiquitination of HSC70” value (HSC70) was “not different; also recorded: trend towards decreased ligase activity” and the “effect on binding affinity towards phosphorylated EEVD tail” value (CHIP-G132N) was “rescued the binding affinity”. The “luminescence of CHIP variant with HSP70-T636A/D” value (LgBiT-HSP70 T636A/D [10]) was “lower luminescence”.
